Reference: paper PMC6265326, “Structure of the hyperosmolality-gated calcium-permeable channel OSCA1.2” (Nature Communications, 2018)

Target: the molecule itself
Test: cryo-EM structure; single-particle cryo-EM of purified AtOSCA1.2 in 25 mM HEPES pH 7.4, 150 mM NaCl, 0.1% digitonin; 3.68 Å

B1: OSCA1.2 from Arabidopsis thaliana (AtOSCA1.2) (natural protein, UniProt Q5XEZ5 1-771, looked up)
chain: MATLQDIGVSAGINILSAFVFFIIFAVLRLQPFNDRVYFSKWYLKGLRSSPARGGAFAQRFVNLDFRSYMKFLNWMPEALKMPEPELIDHAGLDSVVYLRIYWLGLKIFTPIAVLAWAVLVPVNWTNNTLEMAKQLRNVTSSDIDKLSVSNIPEYSMRFWTHIVMAYAFTIWTCYVLMKEYETIANMRLQFVASEARRPDQFTVLVRNVPPDADESVSELVEHFFLVNHPDHYLTHQVVCNANKLADLVKKKKKLQNWLDYYQLKYARNNSQRIMVKLGFLGLWGQKVDAIEHYIAEIDKISKEISKEREEVVNDPKAIMPAAFVSFKTRWAAAVCAQTQQTRNPTQWLTEWAPEPRDVFWSNLAIPYVSLTVRRLIMHVAFFFLTFFFIVPIAFVQSLATIEGIVKAAPFLKFIVDDKFMKSVIQGFLPGIALKLFLAFLPSILMIMSKFEGFTSISSLERRAAFRYYIFNLVNVFLASVIAGAAFEQLNSFLNQSANQIPKTIGVAIPMKATFFITYIMVDGWAGVAGEILMLKPLIMFHLKNAFLVKTDKDREEAMDPGSIGFNTGEPRIQLYFLLGLVYAPVTPMLLPFILVFFALAYIVYRHQIINVYNQEYESAAAFWPDVHGRVIAALVISQLLLMGLLGTKHAALAAPFLIALPVLTIGFHHFCKGRYEPAFIRYPLQEAMMKDTLETAREPNLNLKGYLQNAYVHPVFKGDEDDYDIDDKLGKFEDEAIIVPTKRQSRRNTPAPSIISGDDSPSLPFSGKLV
notes: OSCA1.2 (alias CSC1), Arabidopsis thaliana, full length, 771 amino acids; Homodimer in the cryo-EM structure; 683 residues were modelled and the 54 carboxyl-terminal residues are missing from the model; also called CSC1; source: Sf-9 insect cells (baculovirus), purified (digitonin, Ni-NTA, Superose 6 SEC)
stoichiometry N: 2
